Target: T1, wt.CK2-alpha-prime immobilized on GST-beads (UniProt P19784 1-350)
T1 construct: also called GST-CK2-alpha-prime; recombinant CK2-alpha-prime; not shown: N-terminal GST tag of pGEX-2lambdaT
Assay: GST pull-down of in vitro-translated His-tagged p27 mutants on GST-CK2-alpha-prime, anti-His immunoblot

T1 sequence (P19784 whole entry): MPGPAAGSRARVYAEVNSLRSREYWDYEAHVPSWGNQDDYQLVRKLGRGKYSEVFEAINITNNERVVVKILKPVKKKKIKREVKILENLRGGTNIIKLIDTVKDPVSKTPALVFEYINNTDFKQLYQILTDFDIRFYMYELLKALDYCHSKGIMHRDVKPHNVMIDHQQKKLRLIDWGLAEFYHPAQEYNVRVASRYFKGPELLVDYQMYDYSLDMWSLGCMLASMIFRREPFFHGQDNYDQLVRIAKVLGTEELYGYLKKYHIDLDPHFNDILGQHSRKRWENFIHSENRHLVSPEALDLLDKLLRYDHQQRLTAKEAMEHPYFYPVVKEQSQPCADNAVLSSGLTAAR

B1: p27deltaC (p27.1-86), in vitro-translated His-tagged truncation mutant of p27 (other)
chain: MSNVRVSNGSPSLERMDARQADHPKPSACRNLFGPVDHEELTRDLEKHCRDMEEASQRKWNFDFQNHKPLEGKYEWQEVEKGSLPE
notes: also called p27ΔC; not shown: N-terminal His-tag of pEXP2
- binding result: no binding

Source: patent publication US20110086089A1 (UNIVERSITY HEALTH NETWORK, published 2011)
